Experimental data taken from paper PMC5430844, “RRM domain of ALS/FTD-causing FUS characteristic of irreversible unfolding spontaneously self-assembles into amyloid fibrils” (Scientific Reports, 2017).

Key:
[1] = molecular target: the molecule itself; test: time-lapsed intrinsic UV and visible fluorescence, ThT-binding fluorescence, far-UV CD and negative-stain EM of an incubated sample; RRM alone, 40 µM in 1 mM phosphate buffer pH 6.8, incubated at 25 °C up to 12 days; EM at 3, 6 and 10 days; monomer to amyloid fibrils
[2] = molecular target: the molecule itself; test: 1D 1H NMR line broadening and intensity loss; N-terminal LC domain alone, 40 µM, 25 °C, 1 mM phosphate buffer, pH 6.8 compared with pH 5.0; non-exchangeable protons over −0.4–1.8 ppm

B1: FUS RRM domain (282–371) (domain or fragment, human, UniProt P35637 282-371, looked up)
chain: SDNNTIFVQGLGENVTIESVADYFKQIGIIKTNKKTGQPMINLYTDRETGKLKGEATVSFDDPPSAKAAIDWFDGKEFSGNPIKVSFATR
notes: Fused in Sarcoma/Translocated in Sarcoma (FUS), 526 residues, RNA-recognition motif, residues 282-371 (N-terminal residue Ser282); Cloned by PCR from FUS cDNA into a modified pET28a; The introduction gives the RRM as 285–371, but the construct used is 282–371; also called FUS (282–371); RNA-recognition motif
binding result [1]: binds

B2: FUS N-terminal low-sequence complexity (LC) domain (1–267) (domain or fragment, human, UniProt P35637 1-267, looked up)
chain: MASNDYTQQATQSYGAYPTQPGQGYSQQSSQPYGQQSYSGYSQSTDTSGYGQSSYSSYGQSQNTGYGTQSTPQGYGSTGGYGSSQSSQSSYGQQSSYPGYGQQPAPSSTSGSYGSSSQSSSYGQPQSGSYSQQPSYGGQQQSYGQQQSYNPPQGYGQQNQYNSSSGGGGGGGGGGNYGQDQSSMSSGGGSGGGYGNQDQSGGGGSGGYGQQDRGGRGRGGSGGGGGGGGGGYNRSSGGYEPRGRGGGRGGRGGMGGSDRGGFNKFGG
notes: Fused in Sarcoma/Translocated in Sarcoma (FUS), 526 residues, N-terminal LC domain, residues 1-267 (QGSY-rich prion-like region 1–165 and G-rich region 166–267); Cloned by PCR from FUS cDNA into a modified pET28a; also called N-terminal LC domain; FUS (1–267)
binding result [2]: binds
